# Assay results from article PMC2132825 (The Journal of Cell Biology, 1998).
# T1: purified recombinant mouse PKCζ (mouse, UniProt Q02956 1-592)
# T1 sequence (looked up): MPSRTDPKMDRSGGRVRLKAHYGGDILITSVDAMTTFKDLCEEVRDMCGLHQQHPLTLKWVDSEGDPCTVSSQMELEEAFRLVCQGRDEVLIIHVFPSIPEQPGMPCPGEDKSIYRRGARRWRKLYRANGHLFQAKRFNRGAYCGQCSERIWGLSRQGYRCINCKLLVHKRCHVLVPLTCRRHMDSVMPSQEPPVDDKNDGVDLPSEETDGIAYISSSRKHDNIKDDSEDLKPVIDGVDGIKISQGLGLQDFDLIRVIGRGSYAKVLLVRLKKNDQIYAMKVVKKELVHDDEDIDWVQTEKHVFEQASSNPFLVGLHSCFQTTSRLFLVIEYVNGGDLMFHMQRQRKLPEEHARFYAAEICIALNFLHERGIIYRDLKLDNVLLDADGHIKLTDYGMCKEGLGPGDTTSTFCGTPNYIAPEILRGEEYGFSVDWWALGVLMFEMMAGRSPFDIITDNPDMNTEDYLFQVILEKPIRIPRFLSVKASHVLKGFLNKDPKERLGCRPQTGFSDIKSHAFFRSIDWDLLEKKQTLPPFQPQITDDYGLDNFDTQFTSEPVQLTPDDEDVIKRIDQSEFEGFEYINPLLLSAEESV
# Target: T1, purified recombinant mouse PKCζ
# Assay: far-Western, overlay or dot blot
binder,measurement,value
"GST-ASIP 712/936 (domain or fragment, rat, UniProt Q9Z340 712-936, looked up) RRISHSLYSGIEGLDESPTRNAALSRIMGESGKCQLSPTVNMPHDDTVMIEDDRLPVLPPHLSDQSSSSSHDDVGFIMTEAGTWAKATISDSADCSLSPDVDPVLAFQREGFGRQSMSEKRTKQFSNASQLDFVKTRKSKSMDLGIADETKLNTVDDQRAGSPNRDVGPSLGLKKSSSLESLQTAVAEVTLNGNIPFHRPRPRIIRGRGCNESFRAAIDKSYDKP",binding result,binds
